Source: the nanobody polyreactivity screen of Harvey et al. (2022)

Experiment: yeast display, Sf9 membrane polyspecificity reagent, FACS + sequencing; frameworks hold sequencing errors
How it was run: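 A nanobody's polyreactivity label depends on the gate it was sorted from. Yeast display cells were stained with 10% biotinylated, detergent-solubilized Sf9 membrane reagent for 1 hour at 4 °C, enriched on streptavidin microbeads and sorted by FACS. The low and high (top ~1%) gates were set on anti-HA fluorescence for expression and streptavidin fluorescence for reagent binding.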

| Sequence | polyreactivity (PSR sort gate) |
| --- | --- |
| QVQLVESGGRLVQAGGSLRLICAASGLIFYHNAMGWYRQAPGKERELVAAITASGGSTYYADSVKGRFTISRDNAKNTVYLQMNSLKPEDTAVYSCSADGPLDSDLDYWGQGTQVTVSS | low polyreactivity |
| QVQLVESGGRLVQAGGSLRLRCAASGFTFGYNDMGWYRPAPGKERELLAGIRSGDDTNYADSVKGRFTISRDNAKNTDYLQMNSLKPEDTAVYYCAADVVNIATAEYDYCGQGTQVTVSS | low polyreactivity |
| QVQLVESGGRLVQAGGSLRLSCAASGFIFAVYAMGSYRQAPGKECELVAAISRSSGSTYYADSVKGRFTISRHNAKNTVYLQMNSLKPEDTAVYYCAAVFLYRGYAQYDYWGQGTQVTVSS | high polyreactivity |
| QVQLVESGGRLVQAGGSLRLSCAASGFIFQYYTMGWYRQAPGKERELVAGISRSGGSTYYADSVKGRFTISRDNAKNTVYLQMNSLKPEDTAVYYCAAKIRTSDMGYWGQGTQVTVSS | high polyreactivity |
| QVQLVESGGRLVQAGGSLRLSCAASGFTFKYYAMGWYTQAPGKERELVAAIRRSAGSTNYADSVKGRFTISRDNAKNTVYLQMNSLKPEDTAVYYCNTVGTRQPMDYWGQGTQVTVSS | high polyreactivity |
| QVQLVESGGRLVQAGGSLRLSCAASGGIFPPNAKGWYRQAPGKERELVASISSDGSTNYADSVKGRFTISRDNAKNTVYLQMNSLKPEDTAVYYCAADSTTSWARLHVRRFYYWGQGTQVTVSS | low polyreactivity |
| QVQLVESGGRLVQAGGSLRLSCAASGISFNYYAMGWYRQAPGKEREMVAGITSGGSTYYADSVKGRFTISRDNAKNTVYLQMNSLKTEDTAVYYCATRVRDGSQTPYRRGHSYDYWGQGTQVTVSS | high polyreactivity |
| QVQLVESGGRLVQAGGSLRLSCAASGITFGNAMGWYRQAPGKERELVAGITFSSGSTYYADSVKGRFTISRDNAKNTVYLLMNSLKPEDTAVYYCATDSSKHPYSPTLLKFDYWGQGTQVTVSS | low polyreactivity |
| QVQLVESGGRLVQAGGSLRLSCAASGLTFPVYAMGWYRQAPGKEREFVASISGRGASTYYADSVKGRFTISRDNAKNTVYLQMNSLKPEDTAVYYCNADVWLLSYFPEYDYWGQGTQVTVSS | low polyreactivity |
| QVQLVESGGRLVQAGGSLRLSCAASGRIFAQYAMGWYRQAPGKERELVAAISGRGRTTYYADSVKGRFTISRDNEKNNVYLQMNSVKPEDTAAYYCAAKSTYVAGDYSGQGTQVTVSS | high polyreactivity |
| QVQLVESGGRLVQAGGSLRLSCAASGRIFIYNAMGWYRQAPGKERELVAAISVSGGRTYYADSVKGRFTISRDNAKNTVYLQMNSLKPEDTAVYYCNKVRVGSLRGYWGQGTQVTVSS | high polyreactivity |
| QVQLVESGGRLVQAGGSLRLSCAASGRIFRRNAMGWYRQAPGKERELVAAISSSGGRTYYADSVKGRFTISRDNAKNTVYLQMNSLKPEDTAVYYCATRESLEPGYYWGQGTQVTVSS | high polyreactivity |
| QVQLVESGGRLVQAGGSLRLSCAASGRIFVRNAKGWYRQAPGKERELVADITNGGSTNYADSVKGRFTISRDNAKNTVYLQMNSLKPEDTAVVYWAADTLGVYDGDYWGQGTQVTVSS | low polyreactivity |
| QVQLVESGGRLVQAGGSLRLSCAASGRIIYGYAMGWYRQAPGKERELVATITWSGGSTYYADSVKGRFTISRDNAKNTVYLQMNSLKPEDTAVYYCAAYSPFIYQAYRYDYWGQGTLVTVSS | low polyreactivity |
| QVQLVESGGRLVQAGGSLRLSCAASGRTFPVYAMGWYRQAPGKERELVAAISWSGGSTYYADSVKGRFTISRDNAKNTVYLQMNSLKPEDTAVYYCAKAYHLGLGYRFDYWGQGTQVTVSS | high polyreactivity |
| QVQLVESGGRLVQAGGSLRLSCAASGSIFGGNDMGWYRQAPGKERELVAAITSSGGSTYYADSVKGRFTISRDNAKNTVYLQMNSLKPEDTAVYYCNADYYGPYRDYGYWGQGTQVTVSS | low polyreactivity |
| QVQLVESGGRLVQAGGSLRLSCAASGSIFTVYAMGCYRQAPGKERELVAAIRRTGSRTYYADSVKGRFTNSRDNAKNTVYLQMNSLKPEDTAVYYCAADVWFDRRSVRLNYWGQGTQVTVSS | high polyreactivity |
| QVQLVESGGRLVQAGGSLRLSCAASGSILDGNTMGWYRQAPGKEMELVAAITWDGTSTYYADSVKGRFTISRDNAKNTVYLQMNSLKPEDTAVYYCAATKGYSDQSTGYYAYIHYDYWGQGTQVTVSS | low polyreactivity |
| QVQLVESGGRLVQAGGSLRLSCAASGSNFETYDMGWYRQAPRKERELVAAITLSGGSTYYADSVKGRFTISRDNAKNTVYLQMNSLKPEDTAVYYCAADDSGVKVWEGDYWGQGTQVTVSS | low polyreactivity |
| QVQLVESGGRLVQAGGSLRLSCAASGSTFDYNAMGWYRQEPGKESEFVAAITSTGGNTYYADSVKGRFTISRDNAKNTVYLQMNSLKPEDTAVDYCNKDVARYPYGKFDYWGQGTQVTVSS | low polyreactivity |
| QVQLVESGGRLVQAGGSLRLSCAASGSTFHSYVMGWYRQAPGKERELVAAITSRGGSTNYADSVKGRFTISRDNAKNTVYLKMNSLIPEDTAVYYCAADCYWGWSYFRYDYWGQVTQVTVSS | low polyreactivity |

| Sequence | polyreactivity (PSR sort gate) |
| --- | --- |
| QVQLVESGGRLVQAGGSLRLSCAASGSTFTVIGMGWYRQAPGKERELVASITWSGGSTYYADSVKGRFTISRDNAKNTVYLQMTSLIPEDTAVYYCAADEKLYITGYDYWGQGTQVTVSS | low polyreactivity |
| QVQLVESGGRLVQAGGSLRLSCAASGSTFYPYAMGWYRQAPGKERELVAAINGNGGRTYYADSVKGRFTISRDNAKNTVYLQMNSLKPEDTAVFYCAVVRVAWGHRSDYWGQGTQVTVSS | high polyreactivity |
| QVQLVESGGRLVQAGGSLRLSCAASGYTFPYANGWYRQAPGKERELVAGITSSGGSTYYADSVKGRFTISRDNAKNTVYLQMNSVKPEDTAVYYCNADVFVWLYPHYLIFDYWGQGTQVTVSS | low polyreactivity |
| QVQLVESGGRLVQAGGSLRLSCAATGSTFYKNPMGRYRHAPRKEREVVAAISTSGGSTYYADSLKGRFTISRDNAKNTVYLHMNRLKPEDTAVNYCATRRRIPSSCYYDNDYWGQGTQVTVSS | high polyreactivity |
| QVQLVESGGRLVQAGGSLRLSCASSGRTFYPNAMGWYRHAPGKESELVAGIRSSGDSTYYADSVKGRFTISRDNAKNTVYLQMNSLKPEDTAVYYCNRDLTPSYDYWGQCTQVTVSS | low polyreactivity |
| QVQLVESGGRLVQAGGSLRLSSAASGRTFTSYAMGWYRQSPGKERELVAAISRRGGSTYYADSVKGRFTISRDNAKNTVYLQMNSLKPEDTAVYYCNKATRYYLVELNYWGQGTQVTVSS | high polyreactivity |
| QVQLVESGGRLVQAGGSLRLTCAASGRTFNYYAMGWYRQAPGKERELVAAISRSGGSTYYADSVKGRFTISRDNAKNTVYLQMNSLKPEDTAVYYCNRDRGSIYGWGQGTQVTVSS | high polyreactivity |
| QVQLVESGGRLVQAGGSLRLTLAASGNTRGSYAMGWYRQAPGKEREFVATISKRGGSTYYADSVKGRFTISRDNAKNTVYLQMNSLKPEDTAVYYCNKDPYSIYRPGSGQGYAFNYWGQGTQVTVSS | high polyreactivity |
| QVQLVESGGRLVQAGGSLRVSCAASGSIFRIYSMGWYRQAPGKERELVATISSTGSTYYADSVKGRFTISRDNAKNSVYLQLNSQKPEDTAVYYCAALWKVSSRYWRMDYWGQGTQVTVSS | high polyreactivity |
| QVQLVESGGRLVQAGGSRRLSCAGSGSIFHHNAMGSYRQAPGKESELVAAISSRSGNTYYADSVKGRFTISRDNAKNTVYLQMNSLKPEDPAVYYCAAGIRLSYSTYDSWGQGTQVTVSS | high polyreactivity |
| QVQLVESGGRLVQARGSLRLSCAASGSIFATYVMGWYRQAPGKERELVATITYSGDSTYYADSVKGRFTISRDNAKNTVYLQMNSVKPEDTAVYYCAADYFTLYPYRGFDYWGQGTQVTVSS | low polyreactivity |
| QVQLVESGGSLVQAGGSLRLSCAASGFIFQDNAMGWYRQAPGKERELVAAIRSTGSTNYADSVKGRFTISRDNAKNTVYLQMNSLKPEDTAVYYCNAGKYQSDTPSLVPTEYPAFYYWGQGTQVTVSS | low polyreactivity |
| QVQLVESGGSLVQAGGSLRLSCSASGFIFYTNAMGWYRQAPGKERELVAAISSRGTRTYYADSVKGRFTISRDNAKNSVYLQLNSLKPEDTAVYYCAVRTRYLGLEYYYWGQGSQVTVSS | high polyreactivity |
| QVQLVESGGSLVQAGGSLRLSSAASGITFSDYAMRWYRPAPGKESELVAGITSGGSTYYADSVKGRFTISRDNAKNTVYLQMNSLKPEDSAVYYCAAVRRWKYDWGQGTQVTVSS | high polyreactivity |
| QVQLVESGGVLDQAGGSLRLSCAASGRIYFNKAMGWYRPAPGKEWELVAAINAGGRTNYADSVKGRFTISRDNEKNTVFLHMTSLKQEDTSVYYCNADDNPVWEYDYWGQGTQVTVSS | low polyreactivity |
| QVQLVESGGVLGQAGGSLRLSCAPSGSLIGGYAMGWYRQAPGKQRELVAAISYRGATTYYADSVKGRFTISRDNSKNTVYFQMNSLKPEDTAVYYCDVAARTRARVLYGYDYGGQGTQVTVSS | low polyreactivity |
| QVQLVESGGVLVHAGGILRLSCAASGSTIVRYAMGWYRQAPGKERELVAAKSSRGGSTYYADSVKGRFTITRDNAKNTVYLQMNILKPEDTGVYYCSAAPPGTIAYRVGSWGQGTQVTVSS | high polyreactivity |
| QVQLVESGGVLVQAGARLRLSSAASRFTLALNTMGCYIQAPVKERELVAAISWSGGSTFADSVKGRFTISRDNAKNTFYLQMNSLKPEDTAVYYCAAPLHVAGGYSRDFGSWGQGTQVTVSS | low polyreactivity |
| QVQLVESGGVLVQAGASLRLSCAASVRIFWLNARGCYRQAPGKEREFVASITYGSDSTYYSDSVNGRFTISRDNAKNTVYLQMNSLIPEDTSVYYCNREGWHYGPYEYWGQVTQVTVSS | low polyreactivity |
| QVQLVESGGVLVQAGGILRLSCAASVRTFYRYAMGWYRQAPGKERELVAAITSGDRTNYADSVKGRFTMSRDNAKNTVYLQMNSLKPEYTADYYCAARRDYWAPYYYWGQGTQVTVSS | high polyreactivity |
